Assay results as given in publication PMC11385167 (mAbs, 2024).

Target: T1, human MR C-type 1, full extracellular domain (human, UniProt P22897 19-1389)
T1 sequence (looked up): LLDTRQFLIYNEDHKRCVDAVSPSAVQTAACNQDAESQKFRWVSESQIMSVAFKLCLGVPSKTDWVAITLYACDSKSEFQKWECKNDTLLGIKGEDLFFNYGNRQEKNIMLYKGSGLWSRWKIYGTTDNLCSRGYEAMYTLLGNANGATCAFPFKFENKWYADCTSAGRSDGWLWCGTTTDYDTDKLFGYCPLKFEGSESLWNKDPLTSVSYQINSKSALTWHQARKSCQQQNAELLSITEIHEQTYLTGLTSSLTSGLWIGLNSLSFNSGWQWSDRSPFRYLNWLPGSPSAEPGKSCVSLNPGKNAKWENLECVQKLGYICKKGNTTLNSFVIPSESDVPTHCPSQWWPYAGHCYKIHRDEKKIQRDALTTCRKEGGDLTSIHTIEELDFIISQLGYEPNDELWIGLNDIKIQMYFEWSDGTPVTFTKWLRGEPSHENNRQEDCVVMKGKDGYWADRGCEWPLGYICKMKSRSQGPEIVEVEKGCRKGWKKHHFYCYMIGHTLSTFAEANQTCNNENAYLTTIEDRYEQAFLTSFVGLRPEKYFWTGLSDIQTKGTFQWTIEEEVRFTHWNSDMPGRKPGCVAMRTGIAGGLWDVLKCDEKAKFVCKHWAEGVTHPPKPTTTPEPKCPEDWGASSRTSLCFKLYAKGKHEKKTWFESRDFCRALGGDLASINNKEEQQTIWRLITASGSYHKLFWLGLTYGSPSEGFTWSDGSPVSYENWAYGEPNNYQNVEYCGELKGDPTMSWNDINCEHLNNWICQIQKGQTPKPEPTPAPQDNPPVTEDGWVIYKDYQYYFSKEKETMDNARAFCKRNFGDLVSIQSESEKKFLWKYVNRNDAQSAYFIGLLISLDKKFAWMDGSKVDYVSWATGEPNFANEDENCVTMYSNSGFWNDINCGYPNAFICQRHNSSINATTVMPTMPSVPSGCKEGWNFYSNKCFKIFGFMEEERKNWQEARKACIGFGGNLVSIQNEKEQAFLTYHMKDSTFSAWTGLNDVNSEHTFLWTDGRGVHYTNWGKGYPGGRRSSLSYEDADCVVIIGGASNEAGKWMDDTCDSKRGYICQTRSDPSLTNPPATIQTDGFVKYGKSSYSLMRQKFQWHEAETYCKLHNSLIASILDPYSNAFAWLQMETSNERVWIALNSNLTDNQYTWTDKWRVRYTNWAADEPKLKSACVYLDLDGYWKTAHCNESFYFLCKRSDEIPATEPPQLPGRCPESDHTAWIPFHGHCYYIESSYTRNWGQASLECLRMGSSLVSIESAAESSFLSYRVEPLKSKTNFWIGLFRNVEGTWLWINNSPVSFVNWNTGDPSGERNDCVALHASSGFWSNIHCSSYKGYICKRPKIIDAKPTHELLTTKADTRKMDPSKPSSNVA
Experiment: SPR

Kd: 1300 nM
B1: RNAse B (enzyme, UniProt P61823 27-150, looked up)
chain: KETAAAKFERQHMDSSTSAASSSNYCNQMMKSRNLTKDRCKPVNTFVHESLADVQAVCSQKNVACKNGQTNCYQSYSTMSITDCRETGSSKYPNCAYKTTQANKHIIVACEGNPYVPVHFDASV
modifications: single N-glycosylation site containing mainly M5 and M6 N-glycans
